Sequences and labels used below:
B1: Ankyrin repeat and SAM domain-containing protein 6, residues 774 to 836; numbered along this chain, Q68DC2 (parent)
chain: DEDELTGILKKLSLEKYQPIFEEQEVDMEAFLTLTDGDLKELGIKTDGSRQQILAAISELNAG
B2: Mineralocorticoid receptor, residues 600 to 675; numbered along this chain, P08235 (parent)
chain: SKICLVCGDEASGCHYGVVTCGSCKVFFKRAVEGQHNYLCAGRNDCIIDKIRRKNCPACRLQKCLQAGMNLGARKS

± gives the uncertainty stated by the source.

The variants in one data set derive from B1. Put plainly: abundance fitness (aPCA) (normalised: wild type 0, dead -1); higher = more abundant; growth selection in yeast, the domain comes from the species named. To be noted: Homo sapiens.
Turning to I20C, the abundance fitness was 0.015 ± 0.074.

E2M: the abundance fitness came to 0.565 ± 0.19.

On to E2A, for which the abundance fitness was -0.029 ± 0.055.

For E2L, the abundance fitness came to 0.288 ± 0.08.

Take E2R: the abundance fitness stood at 0.081 ± 0.072.

E2F: the abundance fitness was 0.287 ± 0.079.

Take G43D: the abundance fitness is -0.199 ± 0.078.

G43Q: the abundance fitness was -0.608 ± 0.11.

For G43Y, the abundance fitness is -1.22 ± 0.26.

G43K: the abundance fitness was -0.326 ± 0.091.

Take G43W: the abundance fitness was -1.16 ± 0.15.

Turning to G43I, the abundance fitness was -1.07 ± 0.12.

For the variant G43L, the abundance fitness is -0.655 ± 0.047.

For the variant G43P, the abundance fitness was -0.683 ± 0.14.

Turning to G43S, the abundance fitness is -0.477 ± 0.061.

As for L34Y, the abundance fitness was -0.095 ± 0.12.

Regarding L34C, the abundance fitness was -0.459 ± 0.079.

In the case of L34G, the abundance fitness is -0.551 ± 0.052.

As to L34N, the abundance fitness was -0.483 ± 0.15.

In the case of L34D, the abundance fitness was -0.654 ± 0.12.

Regarding L34E, the abundance fitness was -0.526 ± 0.071.

On to Q51R, for which the abundance fitness was -0.092 ± 0.041.

Q51L: the abundance fitness is -0.252 ± 0.043.

As to Q51D, the abundance fitness was -0.076 ± 0.076.

On to A56M, for which the abundance fitness was -0.227 ± 0.08.

A56N: the abundance fitness was -0.385 ± 0.075.

Consider A56G, for which the abundance fitness came to 0.009 ± 0.041.

A56F: the abundance fitness was -0.246 ± 0.074.

For A56L, the abundance fitness is -0.17 ± 0.037.

Consider L12S, for which the abundance fitness is -0.531 ± 0.057.

As for L12D, the abundance fitness is -1.08 ± 0.21.

As for L12K, the abundance fitness was -0.256 ± 0.09.

On to L12Y, for which the abundance fitness was determined as 0.09 ± 0.45.

Turning to L12I, the abundance fitness amounted to 0.254 ± 0.29.

In the case of L12M, the abundance fitness was 0.038 ± 0.064.

L12H: the abundance fitness came out at 0.171 ± 0.09.

As for L12R, the abundance fitness is -0.538 ± 0.043.

As to L12V, the abundance fitness was -0.369 ± 0.054.

Consider A30S, for which the abundance fitness was -0.015 ± 0.044.

A30M: the abundance fitness was -0.075 ± 0.06.

As for A30I, the abundance fitness was -0.164 ± 0.081.

As to A30N, the abundance fitness was -0.049 ± 0.068.

With A30Y, the abundance fitness is -0.218 ± 0.074.

With A30H, the abundance fitness was determined as 0.037 ± 0.06.

Take S13L: the abundance fitness was -0.497 ± 0.056.

For S13P, the abundance fitness was -0.736 ± 0.078.

For the variant S13Y, the abundance fitness was -0.623 ± 0.12.

Take S13F: the abundance fitness is -0.62 ± 0.14.

On to S13D, for which the abundance fitness was 0.131 ± 0.073.

With E23L, the abundance fitness is -0.419 ± 0.039.

Turning to E23T, the abundance fitness is -0.231 ± 0.062.

Consider E23C, for which the abundance fitness is -0.409 ± 0.062.

Take E23I: the abundance fitness was -0.317 ± 0.083.

For E23H, the abundance fitness was -0.429 ± 0.13.

With E23Y, the abundance fitness is -0.543 ± 0.07.

Consider E23K, for which the abundance fitness was -0.085 ± 0.1.

With L60N, the abundance fitness was -0.286 ± 0.15.

As to L60R, the abundance fitness was -0.108 ± 0.039.

In the case of L60P, the abundance fitness is -0.636 ± 0.082.

As to V26D, the abundance fitness is -0.821 ± 0.14.

For V26Q, the abundance fitness is -0.589 ± 0.061.

Take S49F: the abundance fitness is -0.249 ± 0.07.

For the variant S49N, the abundance fitness is 0.003 ± 0.062.

For S49Q, the abundance fitness was -0.03 ± 0.056.

As for S49T, the abundance fitness was -0.054 ± 0.057.

For S49K, the abundance fitness is -0.186 ± 0.081.

Q24F: the abundance fitness was -0.25 ± 0.11.

For Q24W, the abundance fitness was -0.458 ± 0.081.

Q24V: the abundance fitness was -0.442 ± 0.042.

For Q24Y, the abundance fitness is -0.112 ± 0.11.

In the case of Y17Q, the abundance fitness is -0.339 ± 0.088.

On to Y17E, for which the abundance fitness is -0.026 ± 0.068.

In the case of Y17G, the abundance fitness was -0.399 ± 0.054.

On to Y17H, for which the abundance fitness was -0.505 ± 0.14.

For Y17K, the abundance fitness was -0.426 ± 0.072.

As for Y17V, the abundance fitness is -0.355 ± 0.063.

Turning to Y17L, the abundance fitness is -0.127 ± 0.05.

On to D27C, for which the abundance fitness was -0.376 ± 0.075.

As to D27F, the abundance fitness is -1.25 ± 0.25.

For D27K, the abundance fitness was -0.212 ± 0.051.

Regarding D27H, the abundance fitness was -0.282 ± 0.075.

With D27S, the abundance fitness is -0.075 ± 0.048.

Take D27V: the abundance fitness is -0.988 ± 0.045.

As for I8V, the abundance fitness was -0.072 ± 0.1.

Turning to I8D, the abundance fitness is -0.51 ± 0.1.

Take I8C: the abundance fitness is -0.029 ± 0.088.

Regarding I8Y, the abundance fitness is -0.186 ± 0.078.

As to I8A, the abundance fitness stood at 0.158 ± 0.075.

On to I8T, for which the abundance fitness is -0.058 ± 0.065.

For I8H, the abundance fitness is -0.189 ± 0.072.

For the variant I8W, the abundance fitness is -0.163 ± 0.058.

Turning to L9T, the abundance fitness is -1.29 ± 0.19.

For L9W, the abundance fitness is -0.963 ± 0.11.

On to L9I, for which the abundance fitness is -0.741 ± 0.15.

Turning to L9F, the abundance fitness is -0.077 ± 0.13.

In the case of L9A, the abundance fitness was -0.913 ± 0.091.

On to L9E, for which the abundance fitness was -1.02 ± 0.097.

Take L9R: the abundance fitness was -0.999 ± 0.068.

Consider E29G, for which the abundance fitness is -0.162 ± 0.047.

Take E29T: the abundance fitness is -0.123 ± 0.046.

Consider E29S, for which the abundance fitness is -0.228 ± 0.043.

With E29Y, the abundance fitness is -0.417 ± 0.086.

In the case of D36R, the abundance fitness is -0.72 ± 0.05.

On to D36K, for which the abundance fitness is -0.449 ± 0.06.

With D36M, the abundance fitness was -0.441 ± 0.046.

On to E25I, for which the abundance fitness was -0.281 ± 0.06.

As to E25C, the abundance fitness was -0.073 ± 0.057.

On to E25H, for which the abundance fitness is -0.048 ± 0.062.

Consider E25Q, for which the abundance fitness was -0.204 ± 0.21.

For F31R, the abundance fitness was -0.426 ± 0.047.

Regarding F31C, the abundance fitness is -0.797 ± 0.11.

On to F31L, for which the abundance fitness is -0.305 ± 0.063.

For F31W, the abundance fitness was -0.432 ± 0.066.

On to F31H, for which the abundance fitness is -0.586 ± 0.088.

For the variant F31G, the abundance fitness was -0.443 ± 0.044.

With F31S, the abundance fitness was -0.513 ± 0.056.

Regarding F31Y, the abundance fitness is -0.563 ± 0.068.

On to K16C, for which the abundance fitness was -0.083 ± 0.073.

As for K16A, the abundance fitness came out at 0.074 ± 0.046.

With K16V, the abundance fitness is -0.113 ± 0.063.

For the variant K16F, the abundance fitness is -0.339 ± 0.14.

Regarding K16E, the abundance fitness turned out to be 0.175 ± 0.076.

In the case of K16S, the abundance fitness was -0.103 ± 0.071.

In the case of P19S, the abundance fitness is -0.094 ± 0.04.

For P19C, the abundance fitness is -0.247 ± 0.057.

P19A: the abundance fitness was -0.073 ± 0.068.

As for P19Q, the abundance fitness was -0.21 ± 0.16.

For P19N, the abundance fitness was -0.059 ± 0.071.

Regarding K10T, the abundance fitness was -0.049 ± 0.11.

K10E: the abundance fitness was -0.084 ± 0.082.

K10L: the abundance fitness is -0.656 ± 0.059.

For the variant G37D, the abundance fitness was 0.117 ± 0.1.

With G37E, the abundance fitness is -0.001 ± 0.072.

Take G37V: the abundance fitness was -0.028 ± 0.038.

For G37W, the abundance fitness was -0.331 ± 0.068.

For the variant G37H, the abundance fitness was -0.087 ± 0.09.

G37R: the abundance fitness was -0.111 ± 0.057.

On to G37N, for which the abundance fitness is -0.095 ± 0.099.

G37Y: the abundance fitness is -0.138 ± 0.086.

In the case of K11Y, the abundance fitness was -0.553 ± 0.087.

On to K11T, for which the abundance fitness is -0.428 ± 0.078.

For the variant K11Q, the abundance fitness was -0.099 ± 0.13.

With K11H, the abundance fitness is -0.621 ± 0.2.

On to L5R, for which the abundance fitness is -0.71 ± 0.087.

L5E: the abundance fitness is -1.07 ± 0.15.

Consider L5Q, for which the abundance fitness was -0.639 ± 0.13.

The variants in the next data set derive from B2. The data set is described as above. To be noted: Homo sapiens.
In the case of G13H, the abundance fitness is -0.016 ± 0.064.

As for K63F, the abundance fitness was -0.192 ± 0.052.

K54W: the abundance fitness is -0.194 ± 0.074.

On to I3L, for which the abundance fitness is -0.239 ± 0.043.

On to N44P, for which the abundance fitness is -0.391 ± 0.055.

Turning to C14R, the abundance fitness was -0.062 ± 0.041.

Turning to Y16W, the abundance fitness was 0.024 ± 0.053.

With N37Y, the abundance fitness is -0.085 ± 0.048.

D49V: the abundance fitness was -0.219 ± 0.039.

In the case of R74V, the abundance fitness stood at 0.026 ± 0.038.

With L61D, the abundance fitness was -0.774 ± 0.19.

I48P: the abundance fitness is -0.131 ± 0.043.

N55E: the abundance fitness is -0.082 ± 0.085.

Turning to K2H, the abundance fitness is -0.109 ± 0.078.

For K25N, the abundance fitness was determined as 0.084 ± 0.12.

As for G34S, the abundance fitness was -0.074 ± 0.048.

For L39Q, the abundance fitness is -0.001 ± 0.058.

Regarding L39P, the abundance fitness was -0.07 ± 0.057.

On to D45F, for which the abundance fitness is -0.163 ± 0.046.

Turning to R52G, the abundance fitness is -0.027 ± 0.039.

Turning to S12L, the abundance fitness was 0.068 ± 0.062.

The values are drawn from the Human Domainome abundance scans (Beltran et al. 2025).
